In general, stoichiometry N refers to the number of molecules, sites or subunits per partner or assembly.

Assay [1] addresses Orsay virus full-length δ protein (Orsay virus). In words: AUC; sedimentation velocity, 27.6 μM δ, 20°C, 30,000 rpm, 50 mM TRIS pH 7.5, 250 mM NaCl; PCSA-DS molar mass transformation.
Assay [2] has the same target. As to the kind of experiment: native MS; direct infusion by nano-spray, 10ug/mL protein complex in 5% ACN, 0.1% FA, Orbitrap Fusion Lumos; non-denaturing conditions; intact pentamer.
Assay [3] addresses Orsay virus mini-fusion protein CP-δ(215–485) (Orsay virus). As to the kind of experiment: SEC; Superdex 200 gel filtration; elution buffer 50 mM Tris-HCl pH 7.5, 250 mM NaCl, 2-ME, 1 mM NaN3. (In gel filtration, larger molecules generally elute earlier.)
The target of assay [4] is Orsay virus δ(1–66) (Orsay virus). As to the kind of experiment: crystal structure; hanging-drop vapor diffusion at 20°C; SAD with SeMet crystals, refined against native data at 2.22 Å.

Take “Orsay virus full-length δ protein (natural protein)”: the stoichiometry N in assay [1] and in assay [2] was 5 throughout.
As for “Orsay virus mini-fusion protein CP-δ(215–485) (domain or fragment)”, in assay [3], the stoichiometry N was found to be 5.
In assay [4], “Orsay virus δ(1–66) (domain or fragment)” had a stoichiometry N of 5.

The record behind these values is article PMC5344674.
